According to patent US10058586B2, “Use of human small leucine zipper protein in adipocyte differentiation procedure” (Korea University Research and Business Foundation, priority 2013, dated 2018):

Test system: HDAC3
Assay: GST pull-down of GST-HDAC3 and Flag-sLZIP in 293T cells
Format: binding
Method: 293T cells were obtained and washed with cold PBS. The cells were re-suspended in an IP lysis buffer [25 mM of Tris-HCl (pH 7.4), 150 mM of NaCl, 1 mM of EDTA, 1% NP-40 and 5% glycerol, and a protease inhibitor]. A suspension was centrifuged at 16,000×g for 20 minutes at 4° C. Supernatants were collected and incubated with 0.5 μg of appropriate antibodies and 25 μl of protein A/G-agarose or a GST Sepharose 4B bead for 24 hours at 4° C. A protein complex was centrifuged at 1,000×g with a cold IP lysis buffer for 1 minute and washed five times. The final pellet was re-suspended in 50 μl of an SDS-sample buffer containing 5% β-mercaptoethanol and heated for 10 minutes at 100° C. […] Co-precipitated proteins were detected according to western blotting using specific antibodies.
For this purpose, 293T cells were transiently transfected with PPARγ2 (0.5 μg), (3-galactosidase (0.1 μg), FABP4-Luc reporter genes (0.2 μg) and sLZIP (0.1 μg). After the transfection, the cells were stimulated with or without 10 nM of RZD and 10 nM of TSA (FIG. 4A). A promoter activity was measured according to luciferase analysis. In the 293T cells, FABP4-Luc reporter genes, sLZIP, PPAR, β-galactosidase, and 100 nM of si-RNAs and HDAC1, 2, 3 and 8 for a control group were expressed. After the transfection, the cells were stimulated with or without 10 nM of RZD, and a promoter activity was measured (FIG. 4B). […]

B1: sLZIP: human small leucine-zipper protein, isoform of LZIP, 354 amino acids, no transmembrane domain; GenBank FJ263669, SEQ ID NO: 1 (protein, listed as Homo sapiens)
chain: MELELDAGDQDLLAFLLEESGDLGTAPDEAVRAPLDWALPLSEVPSDWEVDDLLCSLLSPPASLNILSSSNPCLVHHDHTYSLPRETVSMDLESESCRKEGTQMTPQHMEELAEQEIARLVLTDEEKSLLEKEGLILPETLPLTKTEEQILKRVRRKIRNKRSAQESRRKKKVYVGGLESRVLKYTAQNMELQNKVQLLEEQNLSLLDQLRKLQAMVIEISNKTSSSSMYSSDTRGSLPAEHGVLSRQLRALPSEDPYQLELPALQSEVPKDSTHQWLDGSDCVLQAPGNTSCLLHYMPQAPSAEPPLEWPFPDLFSEPLCRGPILPLQANLTRKGGWLPTGSPSVILQDRYSG
10 nM RZD for 24 hours
  interaction with HDAC3 (GST pull-down): HDAC3 was remained as being interacted with sLZIP
No RZD
  interaction with HDAC3 (GST pull-down): interacted with HDAC3 in a PPARγ2 corepressor complex
